T1: recombinant human A33 antigen (human, UniProt Q99795 22-233, limits assumed)
T1 construct: also called human antigen A33; immobilized recombinant human A33
T1 sequence (looked up): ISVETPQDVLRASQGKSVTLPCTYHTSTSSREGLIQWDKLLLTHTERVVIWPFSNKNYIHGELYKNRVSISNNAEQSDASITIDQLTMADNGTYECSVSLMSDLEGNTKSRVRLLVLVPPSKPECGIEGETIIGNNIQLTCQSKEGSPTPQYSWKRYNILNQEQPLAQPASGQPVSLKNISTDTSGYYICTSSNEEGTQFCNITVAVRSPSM


Tests used:
[1] = target: T1, recombinant human A33 antigen; experiment: SPR (Biacore), recombinant human A33 immobilized on CM5 chip, Fab injected at 75-200 nM
Experimental: (§1) The binding strength was determined by surface plasmon resonance in accordance with Rader, et al., Proc. Natl. Acad. Sci USA 95(15): 8910–8915 (1998), incorporated by reference. Briefly, the determination of association ($kon$) and dissociation ($koff$) rate constants for binding of rabbit and humanized Fab to recombinant human A33 antigen was performed on a Biacore instrument (Biacore AB, Uppsala, Sweden). A CM5 sensor chip (Biacore AB) was activated for immobilization with Nhydroxysuccinimide and N-ethyl-N'-(3-dimethylaminopropyl)carbodiimide according to standard methods. Recombinant human A33 antigen was coupled at a low density to the surface by injection of 30 µl to 40 µl of a 1 ng/µl sample in 10 mM sodium acetate (pH 3.5). Approximately 500 resonance units were immobilized. Subsequently, the sensor chip was deactivated with 1 M ethanolamine hydrochloride (pH 8.5). Binding of Fab to immobilized A33 antigen was studied by injection of Fab at 5 different concentrations ranging from 75 nM to 200 nM. PBS was used as the running buffer. The sensor chip was regenerated with 20 mM HCl and remained active for at least 50 measurements. The $kon$ and $koff$ values were calculated using Biacore AB evaluation software. The equilibrium dissociation constant K_d was calculated from $koff/kon$.
Figure 6: FIG. 6 depicts representative Biacore sensorgrams obtained for the binding of rabbit Fab 1 to immobilized human A33 antigen. For association, Fab were injected at 5 different concentrations (200 nM, 150 nM, 125 nM, 100 nM, 75 nM, top to bottom) between t=125 and t=370 seconds, using a flow rate of 5 µl/minute. For dissociation, the flow rate was increased to 50 µl/minute resonance units (RU).

[2] = target: T1, recombinant human A33 antigen; experiment: SPR (Biacore), recombinant human A33 immobilized on CM5 chip; Kd calculated from koff/kon
Experimental: as §1
Association ($kon$) and dissociation ($koff$) rate constant were determined using surface plasmon resonance. Human antigen A33 was immobilized on the sensor chip. The dissociation constant (K_d) was calculated from […].

Row | Binder | koff [1] | kon [1] | Kd [2]
1 | humanized Fab B (human VLB and human VHB) (Fab, V domains shown) VH: EVQVMESGGGLVKPGGSLRLSCAASGIGFSHYGISWVRQAPGKGLEWVSYIYPNYGSVDYASSVNGRFTISLDNAQNSLYLQMNSLRAEDTAVYFCARDRGYYSGSRGTRLDLWGQGTLVTVSS VL: ELQMTQSPSSLSASVGDRVTITCLASEFLFNGVSWYQQKPGKVPKFLIYGASNLESGVPSRFSGSGSGTDFTLTISSLQPEDVATYYCLGGYSGSSGLTFGGGTKVEIK | 0.00061 s⁻¹ | 352000 M⁻¹ s⁻¹ | 1.7 nM
2 | humanized Fab C (human VLC and human VHC) (Fab, V domains shown) VH: EVQVMESGGGLVKPGGSLRLSCAASGIDFSHYGISWVRQAPGKGLEWVSYIYPNYGSVDYASSVNGRFTISLDNAQNSLYLQMNSLRAEDTAVYYCARDRGYYSGSRGTRLDLWGQGTLVTVSS VL: ELQMTQSPSSLSASVGDRVTITCLASEFLFNGVSWYQQKPGKAPKFLIYGASNLESGVPSRFSGSGSGTDFTLTISSLQPEDVATYYCLGGYSGSSGLTFGGGTKVEIK | 0.00197 s⁻¹ | 109000 M⁻¹ s⁻¹ | 18.1 nM
3 | humanized Fab A (human VLA and human VHA) (Fab, V domains shown) VH: EVQVMESGGGLVKPGGSLRLSCAASGIDFSHYGISWVRQAPGKGLEWVSYIYPNYGSVDYASSVNGRFTISFDNAQNSLYLQMNSLRAEDTAVYYCARDRGYYSGSRGTRLDLWGQGTLVTVSS VL: ELQMTQSPSSLSASVGDRVTITCLASEFLFNGVSWYQQKPGKVPKFLIYGASNLESGVPSRFSGSGSGTDYTLTISSLQPEDVATYYCLGGYSGSSGLTFGGGTKVEIK | 0.00059 s⁻¹ | 105000 M⁻¹ s⁻¹ | 5.6 nM
4 | humanized Fab D (human VLD and human VHD) (Fab, V domains shown) VH: EVQVMESGGGLVKPGGSLRLSCAASGIDFSHYGISWVRQAPGKGLEWVSYIYPNYGSVDYASSVNGRFTISLDNAQNSLYLQMNSLRAEDTAVYFCARDRGYYSGSRGTRLDLWGQGTLVTVSS VL: ELQMTQSPSSLSASVGDRVTITCLASEFLFNGVSWYQQKPGKVPKFLIYGASNLESGVPSRFSGSGSGTDYTLTISSLQPEDVATYYCLGGYSGSSGLTFGGGTKVEIK | 0.0019 s⁻¹ | 65000 M⁻¹ s⁻¹ | 29.2 nM
5 | humanized Fab E (human VLE and human VHE) (Fab, V domains shown) VH: EVQVMESGGGLVKPGGSLRLSCAASGFTFSHYGISWVRQAPGKGLEWVSYIYPNYGSVDYASSVNGRFTISFDNAQNSVYLQMNSLRAEDTAVYYCARDRGYYSGSRGTRLDLWGQGTLVTVSS VL: ELQMTQSPSSLSASVGDRVTITCLASEFLFNGVSWYQQKPGKAPKLLIYGASNLESGVPSRFSGSGSGTDYTLTISSLQPEDVATYYCLGGYSGSSGLTFGGGTKVEIK | 0.0005 s⁻¹ | 65000 M⁻¹ s⁻¹ | 7.7 nM
6 | humanized Fab F (human VLF and human VHF) (Fab, V domains shown) VH: EVQVMESGGGLVKPGGSLRLSCAASGIGFSHYGISWVRQAPGKGLEWVSYIYPNYGSVDYASSVNGRFTISLDNAQNSLYLQMNSLRAEDTAVYYCARDRGYYSGSRGTRLDLWGQGTLVTVSS VL: ELQMTQSPSSLSASVGDRVTITCLASEFLFNGVSWYQQKPGKAPKFLIYGASNLESGVPSRFSGSGSGTDFTLTISSLQPEDVATYYCLGGYSGSSGLTFGGGTKVEIK | 0.00068 s⁻¹ | 192000 M⁻¹ s⁻¹ | 3.5 nM
7 | rabbit Fab 1 (rabbit VH1, VL1; chimeric rabbit/human Fab) (Fab, V domains shown, Soluble Fab from E. coli; also called rabbit 1; rabbit clone 1) VH: QQQVMESGGGLVTLGGSLTLTCKASGIDFSNNGISWVRQAPGKGLEWILYIYPDYGSTDYASWVNGRFTISLDNAQNTVFLQMTSLTAADTATYFCARDRGAYAGSRGTRLDLWGQGTLVTVSS VL: EFDMTQTPPSLSASVGETVRIRCLASEFLFNGVSWYQQKPGKPPKFLISGASNLESGVPPRFSGSGSGTDYTLTIGGVQAEDVATYYCLGGYSGSSGLTFGAGTNVEIK | 0.00012 s⁻¹ | 307000 M⁻¹ s⁻¹ | 0.39 nM

From patent US6346249 (LUDWIG INSTITUTE FOR CANCER RESEARCH, dated 2002)
